From US20260265370A1 (SUZHOU TRANSCENTA THERAPEUTICS, published 2026)

Target: T1, human PD-L1 (human, UniProt Q9NZQ7 19-290)
T1 construct: whole, on cells; Endogenous protein in FFPE tumour sections; also called PD-ligand 1
Assay: IHC on FFPE GC-02-0007 PDX tumour sections, Leica BOND III, membrane staining
Procedure: PD-L1 expression status was also assessed to better understand the immune modulation pre- and post Hu18B10-HaLa treatment in GC-02-0007 PDX tumor samples. Immunohistochemistry (IHC) was performed on these 4% neutral buffered formalin fixed paraffin-embedded (FFPE) tumor sections using commercially available Rabbit anti-human PD-L1 monoclonal antibodies (SP263). After deparaffinization and rehydration, all slides were proceeded to antigen retrieval in BOND Epitope Retrieval Solution 2 (Leica, AR9640) for 30 minutes at 97-99° C. Subsequently quenched, blocked with peroxidase inhibitor and incubated with appropriately diluted SP263 (0.2 ug/mL) antibodies for 30 minutes at room temperature (RT). Antibody binding was visualized with BOND Polymer Detection (Leica, DS9800) for 8 minutes on auto-staining Leica BOND III. Sections were finally counterstained with Hematoxylin and mounted with permanent mounting medium.

T1 sequence (Q9NZQ7 19-290): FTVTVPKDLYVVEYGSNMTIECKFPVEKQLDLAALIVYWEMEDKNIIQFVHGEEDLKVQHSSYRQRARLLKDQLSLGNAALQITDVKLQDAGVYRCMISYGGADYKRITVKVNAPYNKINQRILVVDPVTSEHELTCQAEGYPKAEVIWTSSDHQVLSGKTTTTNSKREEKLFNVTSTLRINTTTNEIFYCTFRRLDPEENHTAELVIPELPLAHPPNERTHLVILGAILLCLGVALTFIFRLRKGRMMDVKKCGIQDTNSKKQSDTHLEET

B1: Rabbit anti-human PD-L1 monoclonal antibody SP263 (antibody, V domains shown)
VH: QSLEESGGRLVTPGTPLTLTCTASGFSLSNHAISWVRQAPGKGLEWIGTINSDTHTYYATWPKGRFTISKTSSTTVDLKMTSPTTEDTATYFCARRIFSSSNIWGPGTLVTVSS
VL: AIVMTQTSSPVSAVVGGTVAINCQASQSIYNNNWLSWFQQKPGQPPKLLIYLASTLASGVPSRFKGSGSGTQFTLTISDVVCDDAATYYCIGGESSNNDGIAFGGGTEVVVK
notes: Commercially available rabbit monoclonal antibody; also called anti-PD-L1 diagnostic antibody SP263
binding result: binds
